Laboratory results published in publication PMC6411776 (2019).
Values joined by “and” are separate entries in the source; they are usually repeats but may differ in a detail not shown here. Equal values may be shown once.

What was measured:
[1] = target: Cep63 full-length (FL) (human); test: co-IP; transfected HEK293 cells lysed in TBSN buffer [20 mM Tris-HCl (pH 8.0), 150 mM NaCl, 0.5% Nonidet P-40, 5 mM EGTA, 1.5 mM EDTA]; IP with anti-FLAG or anti-GFP antibody and protein A/G-agarose; immunoblotting
[2] = target: Cep63 P1(424–541), expressed in HEK293 cells; test: co-immunoprecipitation (IP: FLAG) and immunoblotting; conditions: transfected HEK293 cells; FLAG-Cep152 M4e co-expressed with GFP-Cep63 P1 and GFP-Cep152 M4e; blot α-GFP, P1 band; parent: 1.0
Cep152 M4e(1205–1272) = test: as above; conditions: transfected HEK293 cells; FLAG-Cep152 M4e co-expressed with GFP-Cep63 P1 and GFP-Cep152 M4e; blot α-GFP, M4e band; parent: 1.0
[3] = target: Cep152 full-length FL(1–1654) (human); test: co-IP; IP from a mixture of lysates from HEK293 cells transfected separately with each construct; with or without provision of HA-Cep63
Cep63 full-length (FL) = test: co-immunoprecipitation (IP: FLAG) and immunoblotting; conditions: transfected HEK293 cells; FLAG-Cep152 WT or 6A co-expressed with HA-Cep63; blot α-HA, long exposure; parent: 1.0
[4] = target: Cep152 M4e(1205–1272) (human); test: co-IP; transfected HEK293 cells lysed in TBSN buffer [20 mM Tris-HCl (pH 8.0), 150 mM NaCl, 0.5% Nonidet P-40, 5 mM EGTA, 1.5 mM EDTA]; IP with anti-FLAG or anti-GFP antibody and protein A/G-agarose; immunoblotting
[5] = target: Cep63 P1b(490–541) (human); test: as above
[6] = target: Cep152 M4d(1205–1295), from E. coli (human); test: AUC; sedimentation velocity, complex at 10 μM; 4 °C; 20 mM Tris (pH 7.5), 500 mM NaCl, 10 mM 2-mercaptoethanol, 0.5 mM TCEP, 5% glycerol
[7] = target: Cep152 M4e15(1205–1257), from E. coli (human); test: SEC-MALS; decreasing concentrations of the P1b5•M4e15 complex; biphasic change of MW, estimated Kd values of two steps of dissociation of the heterotetramer
[8] = target: Cep152 M4e15(1205–1257), from E. coli (human); test: AUC; sedimentation velocity of the P1b5•M4e15 complex, 95 to 530 μM; 20 °C; 20 mM Tris (pH 7.5), 100 mM NaCl, 0.5 mM TCEP
[9] = target: Cep152(1140–1295), from E. coli (human); test: SEC-MALS; Cep63(220–541)•Cep152(1140–1295) complex; Superdex 200 Increase 10/300 GL, 4 °C, 20 mM Tris-HCl (pH 8.0), 150 mM NaCl, 0.5 mM TCEP (the methods name the P1•M4d complex)
Cep152 = target: T1, Cep152 (Homo sapiens, UniProt O94986); test: SEC-MALS
T1 chain: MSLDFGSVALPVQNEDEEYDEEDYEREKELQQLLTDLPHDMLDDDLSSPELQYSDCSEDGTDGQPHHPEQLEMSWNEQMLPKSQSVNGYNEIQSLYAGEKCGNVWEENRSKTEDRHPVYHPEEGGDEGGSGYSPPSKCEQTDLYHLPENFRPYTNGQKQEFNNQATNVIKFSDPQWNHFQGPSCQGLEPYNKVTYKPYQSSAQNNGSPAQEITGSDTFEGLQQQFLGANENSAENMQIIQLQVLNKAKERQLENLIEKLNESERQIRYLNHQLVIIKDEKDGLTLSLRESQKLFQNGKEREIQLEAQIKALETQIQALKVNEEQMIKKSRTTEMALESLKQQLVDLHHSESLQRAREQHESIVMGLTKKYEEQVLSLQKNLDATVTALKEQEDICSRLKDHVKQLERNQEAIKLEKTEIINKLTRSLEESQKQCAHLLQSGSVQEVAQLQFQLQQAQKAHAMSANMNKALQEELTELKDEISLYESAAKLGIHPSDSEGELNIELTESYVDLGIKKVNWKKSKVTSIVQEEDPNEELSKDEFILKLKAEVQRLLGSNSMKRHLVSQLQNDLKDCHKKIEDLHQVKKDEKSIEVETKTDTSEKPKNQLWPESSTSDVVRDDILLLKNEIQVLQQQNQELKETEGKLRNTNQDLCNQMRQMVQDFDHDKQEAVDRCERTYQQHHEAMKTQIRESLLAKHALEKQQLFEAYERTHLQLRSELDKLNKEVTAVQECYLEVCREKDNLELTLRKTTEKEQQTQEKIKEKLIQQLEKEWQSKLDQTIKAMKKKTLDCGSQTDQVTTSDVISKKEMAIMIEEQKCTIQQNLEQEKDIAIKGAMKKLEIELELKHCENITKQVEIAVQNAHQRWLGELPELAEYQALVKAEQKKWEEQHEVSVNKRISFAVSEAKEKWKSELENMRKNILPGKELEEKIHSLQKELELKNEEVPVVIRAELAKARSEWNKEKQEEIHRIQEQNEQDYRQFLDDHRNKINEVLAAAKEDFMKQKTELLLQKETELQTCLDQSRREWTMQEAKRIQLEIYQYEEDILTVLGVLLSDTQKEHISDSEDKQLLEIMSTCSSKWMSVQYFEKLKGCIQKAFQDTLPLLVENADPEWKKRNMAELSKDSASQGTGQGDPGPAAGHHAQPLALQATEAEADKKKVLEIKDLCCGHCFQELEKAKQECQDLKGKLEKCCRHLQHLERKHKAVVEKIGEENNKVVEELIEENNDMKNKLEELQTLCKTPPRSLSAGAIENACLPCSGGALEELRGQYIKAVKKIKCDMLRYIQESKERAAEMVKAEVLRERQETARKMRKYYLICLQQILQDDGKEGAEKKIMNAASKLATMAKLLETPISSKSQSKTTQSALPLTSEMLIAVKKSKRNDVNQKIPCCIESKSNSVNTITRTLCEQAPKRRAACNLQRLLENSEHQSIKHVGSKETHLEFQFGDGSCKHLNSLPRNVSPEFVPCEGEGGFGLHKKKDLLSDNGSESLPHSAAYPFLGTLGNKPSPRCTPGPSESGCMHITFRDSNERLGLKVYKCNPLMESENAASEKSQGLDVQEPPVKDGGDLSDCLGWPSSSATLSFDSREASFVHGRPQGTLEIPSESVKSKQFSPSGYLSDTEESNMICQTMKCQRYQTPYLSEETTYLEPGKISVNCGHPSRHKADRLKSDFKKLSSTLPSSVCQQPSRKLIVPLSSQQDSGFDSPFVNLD

Molecule: Cep63 full-length (FL) (natural protein)
- fold increase of the co-precipitate on provision of Cep152 [1]: 8 fold

Molecule: Cep152 M4e(1205–1272) 5A
- ratio to parent [2]: 0.9
- ratio to parent (Cep152 M4e(1205–1272)): 0.7

Molecule: Cep152 M4e(1205–1272) 11A
- ratio to parent [2]: 0
- ratio to parent (Cep152 M4e(1205–1272)): 0

Molecule: Cep152 M4e(1205–1272) L1207A; L1210A; Y1214A; I1221A; M1225A; Y1228A
- ratio to parent [2]: 0
- ratio to parent (Cep152 M4e(1205–1272)): 0.1

Molecule: Cep152 full-length FL(1–1654) (natural protein)
- fold increase of the co-precipitate on provision of Cep63 [3]: 8 fold

Molecule: Cep152 full-length FL(1–1654) L1207A; L1210A; Y1214A; I1221A; M1225A; Y1228A
- ratio to parent (Cep63 full-length (FL)): 0.1

Molecule: GFP-Cep63 P1b5(502–541) (domain or fragment)
- loss of co-precipitation against the P1b–M4e pair [4]: 40%

Molecule: GFP-Cep152 M4e13(1205–1260) (domain or fragment)
- loss of co-precipitation against the P1b–M4e pair [5]: 40%

Molecule: His-Cep63 P1(424–541), from E. coli (domain or fragment)
- stoichiometry N (Cep63:Cep152 (printed as 2:2)) [6]: 1

Molecule: His-Cep63 P1b5(502–541), from E. coli (pKM5500) (domain or fragment)
- Kd of one of two steps of dissociation of the 2:2 heterotetramer (step not assigned) [7]: 60 µM
- stoichiometry N (Cep63:Cep152 (printed as 2:2)) [8]: 1

Molecule: His-Cep63(220–541), from E. coli (domain or fragment)
- stoichiometry N (Cep63:Cep152 (printed as 2:2)) [9]: 1

B1: Cep63 (protein)
chain: MEALLEGIQNRGHGGGFLTSCEAELQELMKQIDIMVAHKKSEWEGRTHALETCLKIREQELKSLRSQLDVTHKEVGMLHQQVEEHEKIKQEMTMEYKQELKKLHEELCILKRSYEKLQKKQMREFRGNTKNHREDRSEIERLTAKIEEFRQKSLDWEKQRLIYQQQVSSLEAQRKALAEQSEIIQAQLVNRKQKLESVELSSQSEIQHLSSKLERANDTICANELEIERLTMRVNDLVGTSMTVLQEQQQKEEKLRESEKLLEALQEEKRELKAALQSQENLIHEARIQKEKLQEKVKATNTQHAVEAIRPREESLAEKKYTSQGQGDLDSVLSQLNFTHTSEDLLQAEVTCLEGSLESVSATCKQLSQELMEKYEELKRMEAHNNEYKAEIKKLKEQILQGEQSYSSALEGMKMEISHLTQELHQRDITIASTKGSSSDMEKRLRAEMQKAEDKAVEHKEILDQLESLKLENRHLSEMVMKLELGLHEAKEISLADLQENYIEALNKLVSENQQLQKDLMNTKSQLEISTQMCKKQNDRIFKPTHSRTTEFKNTEFKPTHGQHRHDGIKTEHYKTDLHSPRGQASDSINPMSRVLSPLSPQISPCSSTRSLTSYSLCKTHSLPSALDTNEANFSDTMSESMNDQEEFISSCSLPVSPLGSIATRFLEEEELRSHHILERLDAHIEELKRESEKTVRQFTALK
- Kd (Cep152): ~60 µM and ~117 µM
